Experimental findings from US20140087995A1 (published 2014) are described below.

B1: N^ε1-[(4S)-4-carboxy-4-(19-carboxynonadecanoylamino)butanoyl]-[His14,Arg17,Pro21,Pro27,His35]-h-amylin (peptide)
peptide: K([γGlu-C20 diacid])CNTATCATQRLAHFLRHSSPNFGAIPSSTNVGSHTY-NH2
modifications: disulfide 2-7; N-terminus assumed
SMILES: CC[C@H](C)[C@H](NC(=O)[C@H](C)NC(=O)CNC(=O)[C@H](Cc1ccccc1)NC(=O)[C@H](CC(N)=O)NC(=O)[C@@H]1CCCN1C(=O)[C@H](CO)NC(=O)[C@H](CO)NC(=O)[C@H](Cc1c[nH]cn1)NC(=O)[C@H](CCCNC(=N)N)NC(=O)[C@H](CC(C)C)NC(=O)[C@H](Cc1ccccc1)NC(=O)[C@H](Cc1c[nH]cn1)NC(=O)[C@H](C)NC(=O)[C@H](CC(C)C)NC(=O)[C@H](CCCNC(=N)N)NC(=O)[C@H](CCC(N)=O)NC(=O)[C@@H](NC(=O)[C@H](C)NC(=O)[C@@H]1CSSC[C@H](NC(=O)[C@@H](N)CCCCNC(=O)CC[C@H](NC(=O)CCCCCCCCCCCCCCCCCCC(=O)O)C(=O)O)C(=O)N[C@@H](CC(N)=O)C(=O)N[C@@H]([C@@H](C)O)C(=O)N[C@@H](C)C(=O)N[C@@H]([C@@H](C)O)C(=O)N1)[C@@H](C)O)C(=O)N1CCC[C@H]1C(=O)N[C@@H](CO)C(=O)N[C@@H](CO)C(=O)N[C@H](C(=O)N[C@@H](CC(N)=O)C(=O)N[C@H](C(=O)NCC(=O)N[C@@H](CO)C(=O)N[C@@H](Cc1c[nH]cn1)C(=O)N[C@H](C(=O)N[C@@H](Cc1ccc(O)cc1)C(N)=O)[C@@H](C)O)C(C)C)[C@@H](C)O
notes: Analogue of human amylin; also called compound 66
B2: N^ε1-[(4S)-4-carboxy-4-(19-carboxynonadecanoylamino)butanoyl]-[His14,Arg17,Pro21,Pro27,Pro34]-h-amylin (peptide)
peptide: K([γGlu-C20 diacid])CNTATCATQRLAHFLRHSSPNFGAIPSSTNVGPNTY-NH2
modifications: disulfide 2-7; N-terminus assumed
SMILES: CC[C@H](C)[C@H](NC(=O)[C@H](C)NC(=O)CNC(=O)[C@H](Cc1ccccc1)NC(=O)[C@H](CC(N)=O)NC(=O)[C@@H]1CCCN1C(=O)[C@H](CO)NC(=O)[C@H](CO)NC(=O)[C@H](Cc1c[nH]cn1)NC(=O)[C@H](CCCNC(=N)N)NC(=O)[C@H](CC(C)C)NC(=O)[C@H](Cc1ccccc1)NC(=O)[C@H](Cc1c[nH]cn1)NC(=O)[C@H](C)NC(=O)[C@H](CC(C)C)NC(=O)[C@H](CCCNC(=N)N)NC(=O)[C@H](CCC(N)=O)NC(=O)[C@@H](NC(=O)[C@H](C)NC(=O)[C@@H]1CSSC[C@H](NC(=O)[C@@H](N)CCCCNC(=O)CC[C@H](NC(=O)CCCCCCCCCCCCCCCCCCC(=O)O)C(=O)O)C(=O)N[C@@H](CC(N)=O)C(=O)N[C@@H]([C@@H](C)O)C(=O)N[C@@H](C)C(=O)N[C@@H]([C@@H](C)O)C(=O)N1)[C@@H](C)O)C(=O)N1CCC[C@H]1C(=O)N[C@@H](CO)C(=O)N[C@@H](CO)C(=O)N[C@H](C(=O)N[C@@H](CC(N)=O)C(=O)N[C@H](C(=O)NCC(=O)N1CCC[C@H]1C(=O)N[C@@H](CC(N)=O)C(=O)N[C@H](C(=O)N[C@@H](Cc1ccc(O)cc1)C(N)=O)[C@@H](C)O)C(C)C)[C@@H](C)O
notes: Analogue of human amylin; also called compound 67
B3: N^ε1-[(4S)-4-carboxy-4-[[(4S)-4-carboxy-4-(19-carboxynonadecanoylamino)butanoyl]amino]butanoyl]-[Arg17,Pro21,Pro27,His34]-h-amylin (peptide)
peptide: K([γGlu-γGlu-C20 diacid])CNTATCATQRLANFLRHSSPNFGAIPSSTNVGHNTY-NH2
modifications: disulfide 2-7; N-terminus assumed
SMILES: CC[C@H](C)[C@H](NC(=O)[C@H](C)NC(=O)CNC(=O)[C@H](Cc1ccccc1)NC(=O)[C@H](CC(N)=O)NC(=O)[C@@H]1CCCN1C(=O)[C@H](CO)NC(=O)[C@H](CO)NC(=O)[C@H](Cc1c[nH]cn1)NC(=O)[C@H](CCCNC(=N)N)NC(=O)[C@H](CC(C)C)NC(=O)[C@H](Cc1ccccc1)NC(=O)[C@H](CC(N)=O)NC(=O)[C@H](C)NC(=O)[C@H](CC(C)C)NC(=O)[C@H](CCCNC(=N)N)NC(=O)[C@H](CCC(N)=O)NC(=O)[C@@H](NC(=O)[C@H](C)NC(=O)[C@@H]1CSSC[C@H](NC(=O)[C@@H](N)CCCCNC(=O)CC[C@H](NC(=O)CC[C@H](NC(=O)CCCCCCCCCCCCCCCCCCC(=O)O)C(=O)O)C(=O)O)C(=O)N[C@@H](CC(N)=O)C(=O)N[C@@H]([C@@H](C)O)C(=O)N[C@@H](C)C(=O)N[C@@H]([C@@H](C)O)C(=O)N1)[C@@H](C)O)C(=O)N1CCC[C@H]1C(=O)N[C@@H](CO)C(=O)N[C@@H](CO)C(=O)N[C@H](C(=O)N[C@@H](CC(N)=O)C(=O)N[C@H](C(=O)NCC(=O)N[C@@H](Cc1c[nH]cn1)C(=O)N[C@@H](CC(N)=O)C(=O)N[C@H](C(=O)N[C@@H](Cc1ccc(O)cc1)C(N)=O)[C@@H](C)O)C(C)C)[C@@H](C)O
notes: Analogue of human amylin; also called compound 86
B4: N^ε1-[(4S)-4-carboxy-4-(19-carboxynonadecanoylamino)butanoyl]-[His14,Arg17,Pro21,Pro27,Pro31]-h-amylin (peptide)
peptide: K([γGlu-C20 diacid])CNTATCATQRLAHFLRHSSPNFGAIPSSTPVGSNTY-NH2
modifications: disulfide 2-7; N-terminus assumed
SMILES: CC[C@H](C)[C@H](NC(=O)[C@H](C)NC(=O)CNC(=O)[C@H](Cc1ccccc1)NC(=O)[C@H](CC(N)=O)NC(=O)[C@@H]1CCCN1C(=O)[C@H](CO)NC(=O)[C@H](CO)NC(=O)[C@H](Cc1c[nH]cn1)NC(=O)[C@H](CCCNC(=N)N)NC(=O)[C@H](CC(C)C)NC(=O)[C@H](Cc1ccccc1)NC(=O)[C@H](Cc1c[nH]cn1)NC(=O)[C@H](C)NC(=O)[C@H](CC(C)C)NC(=O)[C@H](CCCNC(=N)N)NC(=O)[C@H](CCC(N)=O)NC(=O)[C@@H](NC(=O)[C@H](C)NC(=O)[C@@H]1CSSC[C@H](NC(=O)[C@@H](N)CCCCNC(=O)CC[C@H](NC(=O)CCCCCCCCCCCCCCCCCCC(=O)O)C(=O)O)C(=O)N[C@@H](CC(N)=O)C(=O)N[C@@H]([C@@H](C)O)C(=O)N[C@@H](C)C(=O)N[C@@H]([C@@H](C)O)C(=O)N1)[C@@H](C)O)C(=O)N1CCC[C@H]1C(=O)N[C@@H](CO)C(=O)N[C@@H](CO)C(=O)N[C@H](C(=O)N1CCC[C@H]1C(=O)N[C@H](C(=O)NCC(=O)N[C@@H](CO)C(=O)N[C@@H](CC(N)=O)C(=O)N[C@H](C(=O)N[C@@H](Cc1ccc(O)cc1)C(N)=O)[C@@H](C)O)C(C)C)[C@@H](C)O
notes: Analogue of human amylin; also called compound 62
B5: N^ε1-[(4S)-4-carboxy-4-[[(4S)-4-carboxy-4-(19-carboxynonadecanoylamino)butanoyl]amino]butanoyl]-[Glu14,Arg17,Pro21,Pro27,Arg34]-h-amylin (peptide)
peptide: K([γGlu-γGlu-C20 diacid])CNTATCATQRLAEFLRHSSPNFGAIPSSTNVGRNTY-NH2
modifications: disulfide 2-7; N-terminus assumed
SMILES: CC[C@H](C)[C@H](NC(=O)[C@H](C)NC(=O)CNC(=O)[C@H](Cc1ccccc1)NC(=O)[C@H](CC(N)=O)NC(=O)[C@@H]1CCCN1C(=O)[C@H](CO)NC(=O)[C@H](CO)NC(=O)[C@H](Cc1c[nH]cn1)NC(=O)[C@H](CCCNC(=N)N)NC(=O)[C@H](CC(C)C)NC(=O)[C@H](Cc1ccccc1)NC(=O)[C@H](CCC(=O)O)NC(=O)[C@H](C)NC(=O)[C@H](CC(C)C)NC(=O)[C@H](CCCNC(=N)N)NC(=O)[C@H](CCC(N)=O)NC(=O)[C@@H](NC(=O)[C@H](C)NC(=O)[C@@H]1CSSC[C@H](NC(=O)[C@@H](N)CCCCNC(=O)CC[C@H](NC(=O)CC[C@H](NC(=O)CCCCCCCCCCCCCCCCCCC(=O)O)C(=O)O)C(=O)O)C(=O)N[C@@H](CC(N)=O)C(=O)N[C@@H]([C@@H](C)O)C(=O)N[C@@H](C)C(=O)N[C@@H]([C@@H](C)O)C(=O)N1)[C@@H](C)O)C(=O)N1CCC[C@H]1C(=O)N[C@@H](CO)C(=O)N[C@@H](CO)C(=O)N[C@H](C(=O)N[C@@H](CC(N)=O)C(=O)N[C@H](C(=O)NCC(=O)N[C@@H](CCCNC(=N)N)C(=O)N[C@@H](CC(N)=O)C(=O)N[C@H](C(=O)N[C@@H](Cc1ccc(O)cc1)C(N)=O)[C@@H](C)O)C(C)C)[C@@H](C)O
notes: Analogue of human amylin; also called compound 88

Numbered stars: 1 amine (or outer) side, 2 acyl side, 3 side chain; on linkers, the order of the positions; unused ones are H or OH. Bridge positions count the residues as written; N and C are the ends. Side chains are listed from the residue outwards. Ends that are not written are not given here. * marks the point of attachment. C20 diacid = O=C(O)CCCCCCCCCCCCCCCCCCC(=O)*; γGlu = O=C(O)[C@H](CCC(=O)[*:2])N[*:1]

In the first assay the target is T1, rat calcitonin receptor (rat, UniProt P32214 25-516).
T1 construct: whole, on cells; Membranes prepared from transiently transfected BHK tk'ts 13 cells (Assay VIII); also called rCTR; rCT
T1 sequence (looked up): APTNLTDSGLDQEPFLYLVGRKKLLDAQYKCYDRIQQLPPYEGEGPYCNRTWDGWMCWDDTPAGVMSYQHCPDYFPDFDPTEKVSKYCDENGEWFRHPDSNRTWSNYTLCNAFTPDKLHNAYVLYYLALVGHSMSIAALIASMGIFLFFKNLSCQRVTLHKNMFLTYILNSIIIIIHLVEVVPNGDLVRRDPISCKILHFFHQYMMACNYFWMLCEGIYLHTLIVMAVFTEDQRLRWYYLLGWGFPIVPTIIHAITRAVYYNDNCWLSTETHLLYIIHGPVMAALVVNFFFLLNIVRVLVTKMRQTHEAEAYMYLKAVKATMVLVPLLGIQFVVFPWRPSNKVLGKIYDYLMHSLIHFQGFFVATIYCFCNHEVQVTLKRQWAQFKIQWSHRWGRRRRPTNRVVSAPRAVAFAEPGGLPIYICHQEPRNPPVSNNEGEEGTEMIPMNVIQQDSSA
The assay is described as follows: ratio of binding IC50s: rat calcitonin receptor / rat amylin receptor (reference).
In the case of B1, the “Ratio rCT/rAmylin binding” value was 35.8.

Take B2: the “Ratio rCT/rAmylin binding” value was 85.4.

With B3, the “Ratio rCT/rAmylin binding” value is 126.

On to B4, for which the “Ratio rCT/rAmylin binding” value was found to be 42.8.

As to B5, the “Ratio rCT/rAmylin binding” value was found to be 84.9.

The next assay deals with T2, human calcitonin receptor (human, UniProt P30988 25-474).
T2 construct: whole, on cells; Membranes prepared from a stably transfected BHK cell line (Assay VII); also called hCTR; hCT
T2 sequence (looked up): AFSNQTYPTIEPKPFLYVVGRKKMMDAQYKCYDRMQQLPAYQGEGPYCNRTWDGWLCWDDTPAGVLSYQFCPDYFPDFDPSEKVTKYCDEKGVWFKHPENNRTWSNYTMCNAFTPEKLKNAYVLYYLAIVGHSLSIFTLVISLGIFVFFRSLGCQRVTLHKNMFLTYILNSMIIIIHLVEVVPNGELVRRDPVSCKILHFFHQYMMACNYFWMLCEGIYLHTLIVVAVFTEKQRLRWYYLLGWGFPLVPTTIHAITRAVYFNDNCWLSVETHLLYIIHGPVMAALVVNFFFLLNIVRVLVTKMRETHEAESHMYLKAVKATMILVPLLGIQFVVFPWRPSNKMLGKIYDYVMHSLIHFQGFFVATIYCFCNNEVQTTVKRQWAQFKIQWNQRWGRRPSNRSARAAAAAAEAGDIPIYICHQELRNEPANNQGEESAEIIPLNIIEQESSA
Put plainly: ratio of binding IC50s: human calcitonin receptor / human amylin receptor (reference). An outline of the steps: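 IC₅₀ values were derived by one-site competition analysis of SPA counts. Cell membranes (35 ng/μL) with SPA beads were incubated with test compounds for 120 min at 25° C in Hepes buffer, pH 7.4, containing CaCl2, MgCl₂, OA and Tween20.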
Turning to B1, the “Ratio hCT/hAmylin binding” value stood at 45.5.

For B2, the “Ratio hCT/hAmylin binding” value stood at 51.6.

On to B3, for which the “Ratio hCT/hAmylin binding” value came out at 159.

With B4, the “Ratio hCT/hAmylin binding” value was 63.

On to B5, for which the “Ratio hCT/hAmylin binding” value was 46.5.

For another assay, the target named is T1, rat calcitonin receptor. Put plainly: SPA competition vs 125I-calcitonin, membranes of BHK cells with rat calcitonin receptor (Assay VIII).
For B1, the IC50 (in general, the concentration that inhibits the measured activity by half) is 20.8 nM.

As for B2, the IC50 was found to be 14.7 nM.

Regarding B3, the IC50 stood at 352 nM.

Consider B4, for which the IC50 stood at 18 nM.

As to B5, the IC50 was determined as 196 nM.

Another assay addresses T3, rat amylin receptor (rat calcitonin receptor + rat RAMP 3) (rat, UniProt P32214 25-516; Q9JJ73 23-147).
T3 construct: whole, on cells; Membranes prepared from transiently transfected BHK tk'ts 13 cells (Assay VI); also called rAmylin-R; rAmylin
T3 sequence (looked up) 1: T1 sequence (looked up)
T3 sequence (looked up) 2: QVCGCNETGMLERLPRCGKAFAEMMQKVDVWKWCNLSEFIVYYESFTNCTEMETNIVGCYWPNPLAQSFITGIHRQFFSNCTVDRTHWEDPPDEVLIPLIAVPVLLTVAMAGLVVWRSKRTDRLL
The assay is described as follows: SPA competition vs 125I-rat amylin, membranes of BHK cells with rat calcitonin receptor + rat RAMP3 (Assay VI).
Take B1: the IC50 is 0.581 nM.

Turning to B2, the 50% inhibitory concentration (IC50) was 0.172 nM.

As to B3, the concentration for half-maximal inhibition (IC50) was 2.8 nM.

B4: the half-inhibitory concentration (IC50) was found to be 0.42 nM.

B5: the half-inhibitory concentration (IC50) amounted to 2.31 nM.
